Test [1] concerns the target Fc-tagged human CD47-ECD protein (CD47-Fc) (human). As to the kind of experiment: ELISA on coated human CD47-Fc; row printed as Affinity (µg/mL).
The target of test [2] is His-tagged human CD47-ECD protein (CD47-His) (human) (UniProt Q08722). Briefly: competitive ELISA on coated CD47-His (2 µg/mL); blocked ligand SIRPα-Fc-Bio (0.1 µg/mL), HRP-streptavidin, OD450.
Chain of His-tagged human CD47-ECD protein (CD47-His) (human) (Q08722 other isoform, or with tags, fused parts or gaps): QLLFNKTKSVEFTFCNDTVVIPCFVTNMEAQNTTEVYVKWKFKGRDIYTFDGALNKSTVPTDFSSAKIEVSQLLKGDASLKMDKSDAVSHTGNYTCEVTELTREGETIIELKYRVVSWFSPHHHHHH

Chain of Fc-tagged human CD47-ECD protein (CD47-Fc) (human) (chain, as listed by the source limits assumed): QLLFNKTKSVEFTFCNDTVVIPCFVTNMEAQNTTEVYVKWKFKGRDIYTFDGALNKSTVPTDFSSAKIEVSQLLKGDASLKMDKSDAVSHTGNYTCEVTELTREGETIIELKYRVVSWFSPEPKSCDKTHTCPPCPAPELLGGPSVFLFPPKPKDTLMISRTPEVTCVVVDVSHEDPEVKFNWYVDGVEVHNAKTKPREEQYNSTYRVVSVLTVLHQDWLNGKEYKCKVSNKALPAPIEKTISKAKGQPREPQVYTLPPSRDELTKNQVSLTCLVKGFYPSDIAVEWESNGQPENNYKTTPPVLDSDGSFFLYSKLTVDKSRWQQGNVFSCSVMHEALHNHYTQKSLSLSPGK

In test [1], Antibody Hu5F9-G4 yielded an EC50 of 0.092 µg/mL.
Turning to IgG (antibody), in test [2], the parameter C of the printed 4-parameter fit (OD does not fall, A 1.192, D 1.394; not an IC50) was determined as 5.76 µg/mL; the parameter C of the printed 4-parameter fit (OD does not fall, A 1.343, D 8.036; not an IC50) is 13400 µg/mL; the parameter C of the printed 4-parameter fit (OD only falls from A 1.633 to D 1.446; not an IC50) turned out to be 1.95 µg/mL.
